This note sets out measurements from paper PMC9482650, “Quantitative fragmentomics allow affinity mapping of interactomes” (Nature Communications, 2022).

Some targets named below: IL16_3, Q14005; DLG1_2, Q12959; DLG2_3, Q15700; PTPN3, P26045; NOS1, P29475; MAST1, Q9Y2H9; TJP1_2, Q07157; DLG2_2, Q15700; HTRA1, Q92743; MAGI2_5, Q86UL8; PICK1, Q9NRD5.
Common to all, as to experiment: holdup assay
Holding throughout (set-up): key: below the threshold = too weak to quantify, mostly under pKd 3.1 to 4

The next experiment deals with T1, LIN7A, O14910.
T1 sequence (O14910 103-200, limits assumed, looked up): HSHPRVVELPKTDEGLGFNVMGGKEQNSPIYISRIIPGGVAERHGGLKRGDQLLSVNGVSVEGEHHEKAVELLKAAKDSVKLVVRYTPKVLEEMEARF

The target of a further experiment is T2, MPDZ_10, O75970.
T2 sequence (O75970 1624-1722, limits assumed, looked up): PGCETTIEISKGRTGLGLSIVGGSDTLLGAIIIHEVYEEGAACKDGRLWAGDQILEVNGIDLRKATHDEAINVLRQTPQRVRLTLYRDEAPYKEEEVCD

A further experiment has as its target T3, PDZRN3_1, Q9UPQ7.
T3 sequence (Q9UPQ7 244-349, limits assumed, looked up): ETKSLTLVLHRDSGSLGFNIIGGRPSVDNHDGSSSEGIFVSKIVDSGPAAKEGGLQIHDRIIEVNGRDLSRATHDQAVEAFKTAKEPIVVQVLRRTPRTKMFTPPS

The target of another experiment is T4, NHERF3_4, Q5T2W1.
T4 sequence (Q5T2W1 373-468, limits assumed, looked up): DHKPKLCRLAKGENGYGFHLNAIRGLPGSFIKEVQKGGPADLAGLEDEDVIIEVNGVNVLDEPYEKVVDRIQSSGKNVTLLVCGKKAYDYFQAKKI

Another experiment deals with T5, MPDZ_12, O75970.
T5 sequence (O75970 1857-1958, limits assumed, looked up): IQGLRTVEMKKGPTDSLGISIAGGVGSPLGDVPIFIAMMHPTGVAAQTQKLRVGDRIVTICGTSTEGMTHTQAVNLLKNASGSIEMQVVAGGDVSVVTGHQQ

In a further experiment the target is T6, NHERF3_1, Q5T2W1.
T6 sequence (Q5T2W1 4-100, limits assumed, looked up): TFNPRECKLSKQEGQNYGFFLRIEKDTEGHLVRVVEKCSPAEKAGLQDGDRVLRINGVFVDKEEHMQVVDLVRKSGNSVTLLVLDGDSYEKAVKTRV

The next experiment deals with T7, DFNB31_2, Q9P202.
T7 sequence (Q9P202 274-371, limits assumed, looked up): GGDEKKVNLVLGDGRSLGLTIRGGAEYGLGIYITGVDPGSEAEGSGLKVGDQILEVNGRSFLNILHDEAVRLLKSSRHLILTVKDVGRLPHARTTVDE

The target of the next experiment is T8, TX1BP3, O14907.
T8 sequence (O14907 10-122, limits assumed, looked up): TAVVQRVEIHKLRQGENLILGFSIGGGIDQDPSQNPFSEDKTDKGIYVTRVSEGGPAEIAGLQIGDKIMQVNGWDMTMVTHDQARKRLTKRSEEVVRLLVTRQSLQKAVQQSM

The next experiment deals with T9, DLG3_1, Q92796.
T9 sequence (Q92796 125-227, limits assumed, looked up): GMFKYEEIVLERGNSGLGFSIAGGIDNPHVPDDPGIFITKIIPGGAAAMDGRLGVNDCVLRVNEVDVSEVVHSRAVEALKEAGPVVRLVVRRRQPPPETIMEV

The target in the next experiment is T10, LRRC7, Q96NW7.
T10 sequence (Q96NW7 1440-1537, limits assumed, looked up): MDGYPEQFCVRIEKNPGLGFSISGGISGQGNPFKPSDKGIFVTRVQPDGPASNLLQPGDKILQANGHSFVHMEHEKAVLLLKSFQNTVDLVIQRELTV

A further experiment has as its target T11, ARHGAP21, Q5T5U3.
T11 sequence (Q5T5U3 45-169, limits assumed, looked up): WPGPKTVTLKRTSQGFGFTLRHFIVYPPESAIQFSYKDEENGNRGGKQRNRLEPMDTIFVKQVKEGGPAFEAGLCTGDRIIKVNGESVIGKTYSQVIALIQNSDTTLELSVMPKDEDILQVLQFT

The next experiment deals with T12, APBA2_2, Q99767.
T12 sequence (Q99767 654-744, limits assumed, looked up): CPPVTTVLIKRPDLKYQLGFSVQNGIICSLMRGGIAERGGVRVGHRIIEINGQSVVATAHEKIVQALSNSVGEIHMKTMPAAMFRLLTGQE

The target in a further experiment is T13, MPDZ_5, O75970.
T13 sequence (O75970 695-796, limits assumed, looked up): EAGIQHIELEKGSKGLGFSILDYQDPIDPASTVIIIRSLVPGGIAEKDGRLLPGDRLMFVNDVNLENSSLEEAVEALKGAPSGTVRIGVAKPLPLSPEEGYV

The mark [1] stands for this setting: plain residues with an end cap or a label only (N-terminal biotin on a linker: ado-ado).
[2] abbreviates: modified: phospho on T at position -2 from the C-terminal residue.

Chain of HTRA1, Q92743 (Q92743 360-477): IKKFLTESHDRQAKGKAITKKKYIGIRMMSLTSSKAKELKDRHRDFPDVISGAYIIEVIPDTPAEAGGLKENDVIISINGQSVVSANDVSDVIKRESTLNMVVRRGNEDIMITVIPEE
Chain of DLG1_2, Q12959 (Q12959 314-412): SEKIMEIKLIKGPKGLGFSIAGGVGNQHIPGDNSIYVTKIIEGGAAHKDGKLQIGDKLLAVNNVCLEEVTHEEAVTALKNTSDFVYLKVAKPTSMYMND
Chain of PICK1, Q9NRD5 (Q9NRD5 17-115): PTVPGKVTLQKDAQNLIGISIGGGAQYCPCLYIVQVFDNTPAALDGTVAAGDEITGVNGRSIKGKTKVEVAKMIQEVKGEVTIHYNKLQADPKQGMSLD
Chain of MAGI2_5, Q86UL8 (Q86UL8 915-1017): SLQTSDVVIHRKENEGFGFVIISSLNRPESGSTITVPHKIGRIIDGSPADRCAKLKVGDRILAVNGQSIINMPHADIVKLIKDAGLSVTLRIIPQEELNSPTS
Chain of NOS1, P29475 (P29475 9-101): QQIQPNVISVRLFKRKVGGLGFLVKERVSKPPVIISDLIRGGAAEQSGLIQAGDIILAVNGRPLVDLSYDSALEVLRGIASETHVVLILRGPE
Chain of PTPN3, P26045 (P26045 505-587): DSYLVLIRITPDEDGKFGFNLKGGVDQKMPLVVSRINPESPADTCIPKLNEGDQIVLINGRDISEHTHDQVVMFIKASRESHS
Chain of IL16_3, Q14005 (Q14005 1107-1207): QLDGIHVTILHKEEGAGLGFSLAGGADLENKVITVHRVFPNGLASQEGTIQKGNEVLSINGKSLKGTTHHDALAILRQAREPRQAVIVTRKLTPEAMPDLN
Chain of MAST1, Q9Y2H9 (Q9Y2H9 962-1065): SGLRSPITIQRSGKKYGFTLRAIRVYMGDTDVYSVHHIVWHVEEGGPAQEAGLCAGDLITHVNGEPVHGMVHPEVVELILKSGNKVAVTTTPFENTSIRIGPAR
Chain of TJP1_2, Q07157 (Q07157 181-274): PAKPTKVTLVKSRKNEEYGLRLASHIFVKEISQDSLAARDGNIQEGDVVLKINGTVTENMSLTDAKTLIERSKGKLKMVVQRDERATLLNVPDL

B1: DCAF7, P61962 (peptide)
chain: YNNCLEILRV
By pKd is commonly meant the negative decadic logarithm of the Kd, by convention in mol/L. B1: the pKd entry with LIN7A, O14910 (setting [1]) is listed as “below the threshold”; in the experiment with MPDZ_10, O75970 (setting [1]), “below the threshold”; with IL16_3, Q14005 (setting [1]), “below the threshold”; with DLG1_2, Q12959 (setting [1]), “below the threshold”; with DLG2_3, Q15700 (setting [1]), “below the threshold”; in the experiment with PDZRN3_1, Q9UPQ7 (setting [1]), “below the threshold”. In addition, the negative-log Kd (pKd) result was “below the threshold” with NHERF3_4, Q5T2W1 (setting [1]); “below the threshold” with PTPN3, P26045 (setting [1]); “below the threshold” with NOS1, P29475 (setting [1]); “below the threshold” with MPDZ_12, O75970 (setting [1]); 4.08 in the experiment with MAST1, Q9Y2H9 (setting [1]); “below the threshold” with NHERF3_1, Q5T2W1 (setting [1]). Further, the negative-log Kd (pKd) is 4.25 with TJP1_2, Q07157 (setting [1]); “below the threshold” in the experiment with DFNB31_2, Q9P202 (setting [1]); “below the threshold” with DLG2_2, Q15700 (setting [1]); 5.22 with HTRA1, Q92743 (setting [1]); “below the threshold” with TX1BP3, O14907 (setting [1]); “below the threshold” in the experiment with DLG3_1, Q92796 (setting [1]). Moreover, the pKd entry with MAGI2_5, Q86UL8 (setting [1]) is recorded as “below the threshold”; with PICK1, Q9NRD5 (setting [1]), “below the threshold”; with LRRC7, Q96NW7 (setting [1]), “below the threshold”; with ARHGAP21, Q5T5U3 (setting [1]), “below the threshold”; with APBA2_2, Q99767 (setting [1]), “below the threshold”; in the experiment with MPDZ_5, O75970 (setting [1]) it was “below the threshold”.

B2: GRIK2, Q13002 (peptide)
chain: RRLPGKETMA
B2: the pKd result in the experiment with LIN7A, O14910 (setting [1]) was “below the threshold”; with MPDZ_10, O75970 (setting [1]) it was “below the threshold”; with IL16_3, Q14005 (setting [1]) it was “below the threshold”; with DLG1_2, Q12959 (setting [1]), 3.66; with DLG2_3, Q15700 (setting [1]), 3.8; in the experiment with PDZRN3_1, Q9UPQ7 (setting [1]), “below the threshold”. Also, the negative-log Kd (pKd) result is “below the threshold” in the experiment with NHERF3_4, Q5T2W1 (setting [1]); “below the threshold” with PTPN3, P26045 (setting [1]); “below the threshold” with NOS1, P29475 (setting [1]); “below the threshold” with MPDZ_12, O75970 (setting [1]); “below the threshold” with MAST1, Q9Y2H9 (setting [1]); “below the threshold” in the experiment with NHERF3_1, Q5T2W1 (setting [1]). Also, the negative logarithm of the Kd (pKd) result is reported as “below the threshold” with TJP1_2, Q07157 (setting [1]); “below the threshold” with DFNB31_2, Q9P202 (setting [1]); “below the threshold” with DLG2_2, Q15700 (setting [1]); “below the threshold” with HTRA1, Q92743 (setting [1]); “below the threshold” with TX1BP3, O14907 (setting [1]); “below the threshold” with DLG3_1, Q92796 (setting [1]). For the same molecule, the negative-log Kd (pKd) entry in the experiment with MAGI2_5, Q86UL8 (setting [1]) is recorded as “below the threshold”; with PICK1, Q9NRD5 (setting [1]), “below the threshold”; with LRRC7, Q96NW7 (setting [1]), “below the threshold”; with ARHGAP21, Q5T5U3 (setting [1]) it was “below the threshold”; with APBA2_2, Q99767 (setting [1]), “below the threshold”; with MPDZ_5, O75970 (setting [1]), “below the threshold”.

B3: DGKH, Q86XP1 (peptide)
chain: LGRSTPQSEV
Take B3: the pKd entry with LIN7A, O14910 (setting [1]) was “below the threshold”; with MPDZ_10, O75970 (setting [1]), “below the threshold”; in the experiment with IL16_3, Q14005 (setting [1]), “below the threshold”; with DLG1_2, Q12959 (setting [1]) it was 4.01; with DLG2_3, Q15700 (setting [1]), “below the threshold”; with PDZRN3_1, Q9UPQ7 (setting [1]), “below the threshold”. For the same molecule, the pKd result is “below the threshold” with NHERF3_4, Q5T2W1 (setting [1]); 4.12 with PTPN3, P26045 (setting [1]); “below the threshold” with NOS1, P29475 (setting [1]); “below the threshold” with MPDZ_12, O75970 (setting [1]); 4.19 in the experiment with MAST1, Q9Y2H9 (setting [1]); “below the threshold” in the experiment with NHERF3_1, Q5T2W1 (setting [1]). Besides, the negative-log Kd (pKd) entry with TJP1_2, Q07157 (setting [1]) is “below the threshold”; with DFNB31_2, Q9P202 (setting [1]), “below the threshold”; in the experiment with DLG2_2, Q15700 (setting [1]) it was 3.58; with HTRA1, Q92743 (setting [1]) it was “below the threshold”; in the experiment with TX1BP3, O14907 (setting [1]) it was 4.03; in the experiment with DLG3_1, Q92796 (setting [1]), “below the threshold”. The pKd result with MAGI2_5, Q86UL8 (setting [1]) was “below the threshold”; with PICK1, Q9NRD5 (setting [1]) it was “below the threshold”; with LRRC7, Q96NW7 (setting [1]), “below the threshold”; with ARHGAP21, Q5T5U3 (setting [1]), 4.1; in the experiment with APBA2_2, Q99767 (setting [1]), “below the threshold”; with MPDZ_5, O75970 (setting [1]), “below the threshold”.

B4: HPV35-E6_-2P, P27228 (peptide)
chain: SKPTRRETEV
On to B4, for which the pKd result is “below the threshold” in the experiment with LIN7A, O14910 (setting [2]); “below the threshold” with MPDZ_10, O75970 (setting [2]); “below the threshold” with IL16_3, Q14005 (setting [2]); “below the threshold” with DLG1_2, Q12959 (setting [2]); 3.52 with DLG2_3, Q15700 (setting [2]); “below the threshold” with PDZRN3_1, Q9UPQ7 (setting [2]). Also, the negative logarithm of the Kd (pKd) entry in the experiment with NHERF3_4, Q5T2W1 (setting [2]) was “below the threshold”; with PTPN3, P26045 (setting [2]), 3.98; with NOS1, P29475 (setting [2]), “below the threshold”; with MPDZ_12, O75970 (setting [2]), “below the threshold”; with MAST1, Q9Y2H9 (setting [2]), “below the threshold”; with NHERF3_1, Q5T2W1 (setting [2]), “below the threshold”. The negative-log Kd (pKd) result was “below the threshold” in the experiment with TJP1_2, Q07157 (setting [2]); “below the threshold” in the experiment with DFNB31_2, Q9P202 (setting [2]); 3.51 with DLG2_2, Q15700 (setting [2]); “below the threshold” with HTRA1, Q92743 (setting [2]); 4.07 with TX1BP3, O14907 (setting [2]); “below the threshold” with DLG3_1, Q92796 (setting [2]). The negative logarithm of the Kd (pKd) result with MAGI2_5, Q86UL8 (setting [2]) was “below the threshold”; with PICK1, Q9NRD5 (setting [2]) it was “below the threshold”; with LRRC7, Q96NW7 (setting [2]) it was “below the threshold”; with ARHGAP21, Q5T5U3 (setting [2]), 4.08; with APBA2_2, Q99767 (setting [2]), “below the threshold”; with MPDZ_5, O75970 (setting [2]) it was “below the threshold”.
